Source: the supplement of paper PMC6757056
± gives the standard deviation of the averaged measurements.

B1: library; a variant is named by its letters at N, in order (parent)
chain: GCUGUCACCGAGAAACUGUGAAGUAUAUCUUAAACCUGGGCACUUAAAAGAUAUAUGGAGUUAGUAGUGCAACCUGCUCGGUCUGAUGAGUCCNNNNNNGGACGAAACAGC

Assays:
[1] = variants of: B1; experiment: FACS-Seq fitted mean relative fluorescence mCherry/BFP without ligand (log10 relative fluorescence); HEK293T; ligand: cyclic di-GMP (c-di-GMP-II aptamer); higher = higher reporter protein expression; settings: ligand present: no
Procedure, shortened: (§1)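 Lentivirally transduced HEK293T libraries carried an mCherry reporter with the ribozyme switch and an EF1α-BFP marker. Transduced cells were enriched, then incubated with or without ligand for 48 h and sorted into 6 bins by mCherry/BFP. Genomic DNA from each bin was PCR-amplified, barcoded and sequenced on MiSeq. Fluorescence was the fitted normal mean of log10(mCherry/BFP) bin counts, scaled to five spiked-in control ribozymes.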

[2] = variants of: B1; experiment: normalized RNA/DNA level without ligand (relative to sTRSVctl = 100) (log10 (% of sTRSVctl)); HEK293T; ligand: cyclic di-GMP (c-di-GMP-II aptamer); higher = less ribozyme self-cleavage, higher mRNA level; settings: reporter: mCherry (pCS4076), ligand present: no
Procedure, shortened: (§2)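 Ribozyme switch library plasmids linked to reporters were introduced into HEK293T cells at 4 µg per 6-well well, with ligand, if any, added 1 h before. Total RNA was extracted with EDTA 72 h later, reverse-transcribed, amplified, barcoded and sequenced. RNA level was computed from RNA over DNA reads relative to a spiked-in non-cleaving sequence or the top sequences, then scaled and log-transformed. The top set was 25 sequences, values were ×100 and log10, and the cutoff was ≥100 DNA reads.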

[3] = variants of: B1; experiment: FACS-Seq fitted mean relative fluorescence mCherry/BFP with ligand (log10 relative fluorescence); HEK293T; ligand: cyclic di-GMP (c-di-GMP-II aptamer); ligand concentration (+) FACS-Seq: 1 mM; higher = higher reporter protein expression; settings: ligand present: yes
Procedure, shortened: as §1

[4] = variants of: B1; experiment: normalized RNA/DNA level with ligand (relative to sTRSVctl = 100) (log10 (% of sTRSVctl)); HEK293T; ligand: cyclic di-GMP (c-di-GMP-II aptamer); ligand concentration (+) RNA-Seq: 1 mM; higher = less ribozyme self-cleavage, higher mRNA level; settings: reporter: mCherry (pCS4076), ligand present: yes
Procedure, shortened: as §2

| Variant | FACS-Seq fitted mean (log10) [1] | normalized RNA/DNA level without ligand (log10) [2] | FACS-Seq fitted mean (log10) [3] | normalized RNA/DNA level with ligand (log10) [4] |
| --- | --- | --- | --- | --- |
| GCGUCG | -0.555 ± 0.037 | 1.64 ± 0.037 | -0.312 ± 0.016 | 1.77 ± 0.11 |
| CAACAA | -0.326 ± 0.062 | 1.37 ± 0.11 | 0.0147 ± 0.011 | 1.53 ± 0.1 |
| ACCUAU | -0.223 ± 0.079 | 1.59 ± 0.055 | -0.113 ± 0.043 | 1.79 ± 0.11 |
| AAAAUG | -0.0352 ± 0.079 | 1.5 ± 0.05 | 0.319 ± 0.046 | 1.7 ± 0.12 |
| AAAUUG | -0.199 ± 0.011 | 1.56 ± 0.096 | -0.00914 ± 0.051 | 1.72 ± 0.097 |
| AAACAC | -0.457 ± 0.011 | 1.6 ± 0.035 | -0.124 ± 0.07 | 1.75 ± 0.082 |
| AAGAAU | -0.565 ± 0.046 | 1.54 ± 0.062 | -0.225 ± 0.05 | 1.74 ± 0.073 |
| GUAAUG | -0.57 ± 0.093 | 1.63 ± 0.061 | -0.481 ± 0.029 | 1.75 ± 0.066 |
| ACAUAC | -0.256 ± 0.19 | 1.57 ± 0.056 | -0.161 ± 0.28 | 1.76 ± 0.097 |
| ACUUAG | -0.25 ± 0.093 | 1.59 ± 0.024 | 0.0154 ± 0.058 | 1.75 ± 0.096 |
| UAGAAU | -0.456 ± 0.092 | 1.56 ± 0.036 | -0.193 ± 0.12 | 1.75 ± 0.13 |
| CACGAA | -0.353 ± 0.036 | 1.33 ± 0.14 | -0.00961 ± 0.027 | 1.53 ± 0.094 |
| AAACUG | -0.426 ± 0.0086 | 1.53 ± 0.039 | -0.194 ± 0.0073 | 1.75 ± 0.092 |
| ACCAGU | -0.368 ± 0.064 | 1.602 ± 0.0077 | 0.00485 ± 0.036 | 1.8 ± 0.068 |
| UAAAUA | -0.362 ± 0.037 | 1.654 ± 0.0031 | -0.139 ± 0.088 | 1.78 ± 0.059 |
| GAAUAG | -0.662 ± 0.05 | 1.64 ± 0.018 | -0.40149 ± 0.00037 | 1.78 ± 0.15 |
| CGGGUA | -0.076 ± 0.13 | 1.67 ± 0.023 | 0.207 ± 0.099 | 1.75 ± 0.081 |
| ACGAUG | -0.381 ± 0.017 | 1.55 ± 0.084 | -0.168 ± 0.022 | 1.72 ± 0.14 |
| CGGCCA | -0.425 ± 0.033 | 1.57 ± 0.099 | -0.137 ± 0.0032 | 1.73 ± 0.11 |
| GUAAAA | -0.251 ± 0.15 | 1.57 ± 0.024 | 0.00851 ± 0.01 | 1.73 ± 0.094 |
| UAACUU | -0.637 ± 0.031 | 1.65 ± 0.005 | -0.458 ± 0.042 | 1.79 ± 0.12 |
| AUAGGU | -0.384 ± 0.071 | 1.51 ± 0.061 | -0.171 ± 0.092 | 1.69 ± 0.14 |
| CCGAGA | -0.211 ± 0.078 | 1.46 ± 0.11 | 0.0834 ± 0.071 | 1.66 ± 0.086 |
| CUUUAA | -0.402 ± 0.005 | 1.32 ± 0.094 | -0.039 ± 0.028 | 1.54 ± 0.087 |

| Variant | FACS-Seq fitted mean (log10) [1] | normalized RNA/DNA level without ligand (log10) [2] | FACS-Seq fitted mean (log10) [3] | normalized RNA/DNA level with ligand (log10) [4] |
| --- | --- | --- | --- | --- |
| UGUGGG | -0.327 ± 0.023 | 1.74 ± 0.03 | -0.0766 ± 0.022 | 1.86 ± 0.12 |
| CUAACU | -0.381 ± 0.006 | 1.59 ± 0.025 | -0.0873 ± 0.0047 | 1.74 ± 0.1 |
| ACAGCG | -0.358 ± 0.013 | 1.75 ± 0.0045 | -0.079 ± 0.031 | 1.86 ± 0.1 |
| CUACAC | -0.167 ± 0.016 | 1.699 ± 0.0052 | 0.0624 ± 0.12 | 1.83 ± 0.11 |
| ACCCUC | -0.504 ± 0.046 | 1.784 ± 0.015 | -0.217 ± 0.028 | 1.91 ± 0.057 |
| UACGGA | -1.08 ± 0.21 | 1.61 ± 0.053 | -0.994 ± 0.18 | 1.76 ± 0.1 |
| UGAUAC | -0.0926 ± 0.067 | 1.69 ± 0.02 | 0.197 ± 0.054 | 1.8 ± 0.12 |
| AUGCGA | -0.411 ± 0.064 | 1.49 ± 0.079 | -0.0888 ± 0.022 | 1.66 ± 0.13 |
| AAGCAC | -0.391 ± 0.077 | 1.678 ± 0.0034 | -0.0705 ± 0.025 | 1.82 ± 0.11 |
| CCCCAC | -0.891 ± 0.018 | 1.75 ± 0.033 | -0.665 ± 0.018 | 1.88 ± 0.097 |
| AGUAGG | -1.02 ± 0.098 | 1.63 ± 0.097 | -0.997 ± 0.068 | 1.75 ± 0.049 |
| CUGCGA | -0.33 ± 0.01 | 1.65 ± 0.024 | 0.0519 ± 0.0084 | 1.8 ± 0.095 |
| CAGUUC | -0.4497 ± 0.0028 | 1.66 ± 0.038 | -0.1164 ± 0.00072 | 1.82 ± 0.097 |
| UAAUGA | -0.416 ± 0.019 | 1.597 ± 0.0061 | -0.112 ± 0.13 | 1.77 ± 0.086 |
| UAAAUG | 0.102 ± 0.084 | 1.62 ± 0.0043 | 0.384 ± 0.037 | 1.83 ± 0.12 |
| UACGCU | -0.169 ± 0.063 | 1.71 ± 0.032 | 0.108 ± 0.051 | 1.86 ± 0.098 |
| UCGAUA | -0.515 ± 0.044 | 1.35 ± 0.17 | -0.119 ± 0.11 | 1.51 ± 0.084 |
| ACAAGA | -0.604 ± 0.026 | 1.26 ± 0.14 | -0.428 ± 0.022 | 1.46 ± 0.023 |
| CGCCAU | -0.339 ± 0.042 | 1.5 ± 0.12 | -0.0661 ± 0.036 | 1.69 ± 0.078 |
| GUAGCA | 0.112 ± 0.04 | 1.83 ± 0.043 | 0.201 ± 0.053 | 1.87 ± 0.13 |
| UCCAGA | -0.246 ± 0.071 | 1.631 ± 0.014 | 0.0947 ± 0.062 | 1.82 ± 0.081 |
| UUGAAA | -0.168 ± 0.075 | 1.607 ± 0.0064 | -0.0658 ± 0.065 | 1.76 ± 0.14 |
| GUGUUG | -0.394 ± 0.069 | 1.59 ± 0.068 | -0.183 ± 0.047 | 1.74 ± 0.12 |
| UAUGAU | -0.525 ± 0.18 | 1.597 ± 0.0092 | -0.0494 ± 0.041 | 1.79 ± 0.12 |

| Variant | FACS-Seq fitted mean (log10) [1] | normalized RNA/DNA level without ligand (log10) [2] | FACS-Seq fitted mean (log10) [3] | normalized RNA/DNA level with ligand (log10) [4] |
| --- | --- | --- | --- | --- |
| UAUGUA | -0.622 ± 0.023 | 1.668 ± 0.0069 | -0.405 ± 0.035 | 1.84 ± 0.08 |
| AAGGAA | -0.627 ± 0.048 | 1.35 ± 0.13 | -0.409 ± 0.03 | 1.51 ± 0.069 |
| CCUUAG | -0.183 ± 0.044 | 1.64 ± 0.026 | 0.161 ± 0.06 | 1.83 ± 0.12 |
| CAAAUU | -0.59 ± 0.046 | 1.45 ± 0.12 | -0.349 ± 0.046 | 1.67 ± 0.076 |
| AACGCC | -0.235 ± 0.048 | 1.75 ± 0.022 | 0.192 ± 0.046 | 1.9 ± 0.15 |
| GUUUAU | -0.2549 ± 0.0013 | 1.652 ± 0.0032 | -0.31 ± 0.34 | 1.81 ± 0.086 |
| ACGGAA | -0.62 ± 0.042 | 1.31 ± 0.097 | -0.325 ± 0.031 | 1.47 ± 0.13 |
| UUGUAU | 0.0117 ± 0.057 | 1.66 ± 0.051 | 0.163 ± 0.013 | 1.82 ± 0.16 |
| AACCUU | -0.0813 ± 0.093 | 1.66 ± 0.039 | 0.232 ± 0.016 | 1.82 ± 0.11 |
| AUAAUA | -0.503 ± 0.0074 | 1.58 ± 0.0077 | -0.158 ± 0.15 | 1.75 ± 0.092 |
| AAUGUU | -0.4781 ± 0.0039 | 1.66 ± 0.034 | -0.144 ± 0.16 | 1.82 ± 0.076 |
| ACAUGG | -0.46 ± 0.077 | 1.44 ± 0.11 | -0.227 ± 0.031 | 1.61 ± 0.11 |
| CCAGCA | -0.507 ± 0.13 | 1.73 ± 0.021 | -0.329 ± 0.02 | 1.86 ± 0.098 |
| UGGUGA | -0.506 ± 0.1 | 1.57 ± 0.12 | -0.257 ± 0.04 | 1.75 ± 0.1 |
| CUCGAA | -0.00262 ± 0.0023 | 1.41 ± 0.12 | 0.32 ± 0.035 | 1.6 ± 0.097 |
| GAACUA | -0.288 ± 0.19 | 1.6 ± 0.068 | 0.0146 ± 0.12 | 1.77 ± 0.091 |
| CAUAAU | -0.282 ± 0.056 | 1.46 ± 0.092 | -0.0129 ± 0.014 | 1.63 ± 0.072 |
| GUUAGA | -0.409 ± 0.02 | 1.51 ± 0.12 | -0.0172 ± 0.12 | 1.73 ± 0.11 |
| CGUAUA | -0.76 ± 0.11 | 1.3 ± 0.1 | -0.4664 ± 0.0033 | 1.45 ± 0.13 |
| AAUGAA | -0.0795 ± 0.021 | 1.46 ± 0.097 | 0.113 ± 0.065 | 1.63 ± 0.097 |
| UCGCCA | 0.132 ± 0.027 | 1.71 ± 0.032 | 0.335 ± 0.037 | 1.88 ± 0.073 |
| GUAGUA | -0.69 ± 0.1 | 1.663 ± 0.0053 | -0.47 ± 0.075 | 1.74 ± 0.099 |
| GACCUG | -0.44 ± 0.12 | 1.66 ± 0.022 | -0.213 ± 0.13 | 1.81 ± 0.11 |
| GUAGGA | -0.422 ± 0.02 | 1.43 ± 0.081 | -0.137 ± 0.14 | 1.64 ± 0.11 |
